Results taken from patent publication US10266547B2, “Thieno[2,3-e]indole derivatives as new antitumor agents” (NERVIANO MEDICAL SCIENCES S.R.L., priority 2013, dated 2019).

Target: cathepsin B (Homo sapiens, UniProt P07858)
Test: Release of a drug moiety from a conjugate in presence of cathepsin
Assay type: in vitro ADME
Settings: 0.2 units cathepsin B, sodium acetate buffer pH 5.5, 1 mM Cys, 2 hours at 40° C., HPLC ESI-MS
Method: As an example, that is not intended to limit the scope of the invention, the release of a compound of formula (II) from the conjugate was performed in presence of cathepsin as reported below.
The conjugate A1 was incubated with 0.2 units of cathepsin B in sodium acetate buffer pH 5.5 and 1 mM Cys for 2 hours at 40° C.

Cc1cc2c(OC(=O)N(C)CCN(C)C(=O)OCc3ccc(NC(=O)[C@H](CCCNC(N)=O)NC(=O)[C@@H](NC(=O)CCCCCN4C(=O)CC(SC[C@H](N)C(=O)O)C4=O)C(C)C)cc3)cc3c(c2s1)[C@H](CCl)CN3C(=O)c1cc2cc(OCCN3CCCC3)ccc2[nH]1 (stereo partly shown) [A1]
release of the compound of formula (II) from the conjugate (breaking of the Z peptidic linker): Disappearance of the conjugate A1 and release of the corresponding compound of formula (II)
